Holding throughout (test): pull-down
In assay [1] the target is ITK PHTH L51D.
Assay [2] concerns the target ITK PHTH E56A.
The target in assay [3] is His6-GB1 tagged ITK PHTH (C96E/T110I) domain.

“His6 tagged mouse ITK kinase domain (residues 356-619) (domain or fragment)”: the decrease in binding compared to wild type ITK PHTH in assay [1] and in assay [2] was 50% throughout. In addition, the disruption of the interaction by 5 μM IP(1,3,4,5)P4 in assay [3] was over 50%.

For the origin of these results see paper PMC5956896.
